Assay results taken from patent US20220049236A1.

Legend:
HSP70 [1] = molecular target: HSP70 (UniProt P0DMV8); assay: ELISA, plate coated with HSP70
HSP70 [2] = molecular target: HSP70 (UniProt P0DMV8); assay: ELISA, plate coated with HSP70, bound protein detected with peroxidase-conjugated anti-human antibody

Chain of HSP70 (P0DMV8 whole entry): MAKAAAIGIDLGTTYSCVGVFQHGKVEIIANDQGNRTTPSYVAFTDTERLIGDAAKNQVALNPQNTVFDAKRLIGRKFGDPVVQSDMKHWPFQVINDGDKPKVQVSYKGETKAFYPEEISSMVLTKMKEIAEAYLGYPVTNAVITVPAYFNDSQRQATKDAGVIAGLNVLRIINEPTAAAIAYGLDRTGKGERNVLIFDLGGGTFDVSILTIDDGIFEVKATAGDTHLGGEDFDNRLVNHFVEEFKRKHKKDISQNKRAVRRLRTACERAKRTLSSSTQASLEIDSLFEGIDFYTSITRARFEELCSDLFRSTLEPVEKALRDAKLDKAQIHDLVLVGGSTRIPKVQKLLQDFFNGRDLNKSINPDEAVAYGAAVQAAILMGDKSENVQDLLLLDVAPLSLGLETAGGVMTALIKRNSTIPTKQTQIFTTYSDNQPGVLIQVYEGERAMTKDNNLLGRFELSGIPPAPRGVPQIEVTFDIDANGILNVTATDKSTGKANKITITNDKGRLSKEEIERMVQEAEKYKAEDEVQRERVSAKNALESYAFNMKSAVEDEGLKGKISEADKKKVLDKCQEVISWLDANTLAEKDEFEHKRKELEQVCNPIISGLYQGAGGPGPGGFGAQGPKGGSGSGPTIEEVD

B1: Fc-LPD N346, 362, 409Q (Fc fusion)
chain: APPAAGQQQPPREPPAAPGAWRQQIQWENNGQVFSLLSLGSQYQPQRRRDPGAAVPGAAQASAQQPRTPILLIRDQRTAAARTRTAGSSGVTAGRPRPTARHWFQAGYSTSRAREAGASRAEQQTAPGEVPALSNLRPPSRVDGMVGD
- EC50 (HSP70 [1]): 41 nM
- EC50 (HSP70 [2]): 57 nM
